According to paper doi:10.1101/2021.02.26.433144v1 (biorxiv, 2021):

Legend:
Test in all cases: purified protein
purified protein [1] = substrate: COc1ccccc1O; settings: 0.1 M sodium phosphate pH 7, 40 °C, 0-15 mM substrate
purified protein [2] = substrate: Oc1cc(O)c2c(c1)O[C@H](c1ccc(O)c(O)c1)[C@@H](O)C2; settings: 0.1 M sodium phosphate pH 7, 40 °C, 0-10 mM substrate
purified protein [3] = substrate: Oc1ccc(O)cc1; settings: 0.1 M sodium phosphate pH 7, 40 °C, 0-70 mM substrate
purified protein [4] = substrate: N[C@@H](Cc1ccc(O)c(O)c1)C(=O)O; settings: 0.1 M sodium phosphate pH 7, 40 °C, 0-7 mM substrate
purified protein [5] = substrate: Oc1ccccc1O; settings: 0.1 M sodium phosphate pH 7, 40 °C, 0-60 mM substrate

Row | Protein | Km (purified protein [2]) | kcat (purified protein [2]) | also measured
1 | TtPPO (Thermothelomyces thermophilus ATCC 42464) (protein) RCSSDAPPPAPVGDDLTEPKELTDLFEKAKKAVIDRLHEDEKALRARGEAPRCTADKLIFRREYGSLSKDERLAYVNAVKCLQSKPPRTPASVAPGARSRFDDFVVVHIQQTLDIHYSGIFQAWHRWFVYQYEKALRDECGYTGYQPYWDWPKYASAPQDSPLFNGDPYSLGGNGEYVPHDGPVIVPPEGVSGGNISLPAGVGGGFVRTGPFANMTVNLGPVGGLADTAPGPQGGLGYNPRGLKRDLGGAMNTRYANYTTVLRLLTQPDVDAFRTVSEGVPYTVEIGPHGGIHYTIGGDPGGDLFTSPGDPAFWVHHAQMDRVWATWQALGLLPPADGGDPDPARRYTDLGKGDYAHRTWQNSPPSPFAELSDVIDMGYAAPSTTIGAVMSTTEGELCYFYL | 33.7(14.0) mM | 1619.1(549.2) min^-1 | Km (purified protein [1]): 4.6(0.6) mM; kcat (purified protein [1]): 39.3(2.2) min^-1; Km (purified protein [3]): 59.1(6.0) mM; kcat (purified protein [3]): 67.5(3.9) min^-1; Km (purified protein [4]): 2.4(0.7) mM; kcat (purified protein [4]): 4.3(0.5) min^-1; Km (purified protein [5]): 32.5(4.3) mM; kcat (purified protein [5]): 8.6(0.6) min^-1
2 | TtPPO (Thermothelomyces thermophilus ATCC 42464; G312N/Y316V) (protein) RCSSDAPPPAPVGDDLTEPKELTDLFEKAKKAVIDRLHEDEKALRARGEAPRCTADKLIFRREYGSLSKDERLAYVNAVKCLQSKPPRTPASVAPGARSRFDDFVVVHIQQTLDIHYSGIFQAWHRWFVYQYEKALRDECGYTGYQPYWDWPKYASAPQDSPLFNGDPYSLGGNGEYVPHDGPVIVPPEGVSGGNISLPAGVGGGFVRTGPFANMTVNLGPVGGLADTAPGPQGGLGYNPRGLKRDLGGAMNTRYANYTTVLRLLTQPDVDAFRTVSEGVPYTVEIGPHNGIHVTIGGDPGGDLFTSPGDPAFWVHHAQMDRVWATWQALGLLPPADGGDPDPARRYTDLGKGDYAHRTWQNSPPSPFAELSDVIDMGYAAPSTTIGAVMSTTEGELCYFYL | 10.3(0.8) mM | 33.3(1.7) min^-1 | 
3 | TtPPO (Thermothelomyces thermophilus ATCC 42464; Y316V) (protein) RCSSDAPPPAPVGDDLTEPKELTDLFEKAKKAVIDRLHEDEKALRARGEAPRCTADKLIFRREYGSLSKDERLAYVNAVKCLQSKPPRTPASVAPGARSRFDDFVVVHIQQTLDIHYSGIFQAWHRWFVYQYEKALRDECGYTGYQPYWDWPKYASAPQDSPLFNGDPYSLGGNGEYVPHDGPVIVPPEGVSGGNISLPAGVGGGFVRTGPFANMTVNLGPVGGLADTAPGPQGGLGYNPRGLKRDLGGAMNTRYANYTTVLRLLTQPDVDAFRTVSEGVPYTVEIGPHGGIHVTIGGDPGGDLFTSPGDPAFWVHHAQMDRVWATWQALGLLPPADGGDPDPARRYTDLGKGDYAHRTWQNSPPSPFAELSDVIDMGYAAPSTTIGAVMSTTEGELCYFYL | 9.7(2.4) mM | 547.3(84.6) min^-1 | 
4 | TtPPO (Thermothelomyces thermophilus ATCC 42464; G312N) (protein) RCSSDAPPPAPVGDDLTEPKELTDLFEKAKKAVIDRLHEDEKALRARGEAPRCTADKLIFRREYGSLSKDERLAYVNAVKCLQSKPPRTPASVAPGARSRFDDFVVVHIQQTLDIHYSGIFQAWHRWFVYQYEKALRDECGYTGYQPYWDWPKYASAPQDSPLFNGDPYSLGGNGEYVPHDGPVIVPPEGVSGGNISLPAGVGGGFVRTGPFANMTVNLGPVGGLADTAPGPQGGLGYNPRGLKRDLGGAMNTRYANYTTVLRLLTQPDVDAFRTVSEGVPYTVEIGPHNGIHYTIGGDPGGDLFTSPGDPAFWVHHAQMDRVWATWQALGLLPPADGGDPDPARRYTDLGKGDYAHRTWQNSPPSPFAELSDVIDMGYAAPSTTIGAVMSTTEGELCYFYL | 4.3(1.0) mM | 2.9(0.3) min^-1 | 
5 | TtPPO (Thermothelomyces thermophilus ATCC 42464; G312N/L326A) (protein) RCSSDAPPPAPVGDDLTEPKELTDLFEKAKKAVIDRLHEDEKALRARGEAPRCTADKLIFRREYGSLSKDERLAYVNAVKCLQSKPPRTPASVAPGARSRFDDFVVVHIQQTLDIHYSGIFQAWHRWFVYQYEKALRDECGYTGYQPYWDWPKYASAPQDSPLFNGDPYSLGGNGEYVPHDGPVIVPPEGVSGGNISLPAGVGGGFVRTGPFANMTVNLGPVGGLADTAPGPQGGLGYNPRGLKRDLGGAMNTRYANYTTVLRLLTQPDVDAFRTVSEGVPYTVEIGPHNGIHYTIGGDPGGDAFTSPGDPAFWVHHAQMDRVWATWQALGLLPPADGGDPDPARRYTDLGKGDYAHRTWQNSPPSPFAELSDVIDMGYAAPSTTIGAVMSTTEGELCYFYL | 4.3(0.3) mM | 337.9(11.2) min^-1 | 
6 | TtPPO (Thermothelomyces thermophilus ATCC 42464; L326A) (protein) RCSSDAPPPAPVGDDLTEPKELTDLFEKAKKAVIDRLHEDEKALRARGEAPRCTADKLIFRREYGSLSKDERLAYVNAVKCLQSKPPRTPASVAPGARSRFDDFVVVHIQQTLDIHYSGIFQAWHRWFVYQYEKALRDECGYTGYQPYWDWPKYASAPQDSPLFNGDPYSLGGNGEYVPHDGPVIVPPEGVSGGNISLPAGVGGGFVRTGPFANMTVNLGPVGGLADTAPGPQGGLGYNPRGLKRDLGGAMNTRYANYTTVLRLLTQPDVDAFRTVSEGVPYTVEIGPHGGIHYTIGGDPGGDAFTSPGDPAFWVHHAQMDRVWATWQALGLLPPADGGDPDPARRYTDLGKGDYAHRTWQNSPPSPFAELSDVIDMGYAAPSTTIGAVMSTTEGELCYFYL | 2.8(0.5) mM | 415.0(35.1) min^-1 | 
